The results in this text go back to patent US20250296912A1, “AFFINITY ILLUDOFULVENE CONJUGATES” (Illudent, Inc., published 2025).

The star is where a group is joined. 3‑aminopropyl acylfulvene = analog 211, C-terminal Leu bound as amide to it; Mu = 4-morpholine-carbonyl, O=C(N1CCOCC1)*

For the assay, the target named is prostate specific antigen (Homo sapiens). Nature of the assay: cell-based or functional assay.

Take Mu-HSSKLQL-{3‑aminopropyl acylfulvene} [Analog 221 (Mu-His-Ser-Ser-Lys-Leu-Gln coupled to analog 207, 211-leucine)]: the “IC50 (48 hour exposure), Prostate DuPro (trace PSA)” value stood at 13 µM and the “IC50 (48 hour exposure), Prostate LnCAP (positive PSA)” value is 0.8 µM.
